# Test results as given in patent US20250218531A1 (ABSCI, published 2025).
# Where “and” joins values, the source holds several entries; their conditions need not be identical. Equal values may be shown once.
# Molecular target: human epidermal growth factor receptor 2 (HER2) extracellular domain (human, UniProt P04626 23-629)
# Test: SPR
Binder,Kd,log(KD (M))
"Trastuzumab HCDR3 variant ARYGPYYYYAMDY (Fab, V domains shown) VH: EVQLVESGGGLVQPGGSLRLSCAASGFNIKDTYIHWVRQAPGKGLEWVARIYPTNGYTRYADSVKGRFTISADTSKNTAYLQMNSLRAEDTAVYYCARYGPYYYYAMDYWGQGTLVTVSS VL: not shown",41.3 nM and 41.2 nM,-7.38 log(M)
"Trastuzumab HCDR3 variant ARYGRNGSYSYDY (Fab, V domains shown) VH: EVQLVESGGGLVQPGGSLRLSCAASGFNIKDTYIHWVRQAPGKGLEWVARIYPTNGYTRYADSVKGRFTISADTSKNTAYLQMNSLRAEDTAVYYCARYGRNGSYSYDYWGQGTLVTVSS VL: not shown",38.2 nM,-7.42 log(M)
"Trastuzumab HCDR3 variant ARYGTGTYYYFLH (Fab, V domains shown) VH: EVQLVESGGGLVQPGGSLRLSCAASGFNIKDTYIHWVRQAPGKGLEWVARIYPTNGYTRYADSVKGRFTISADTSKNTAYLQMNSLRAEDTAVYYCARYGTGTYYYFLHWGQGTLVTVSS VL: not shown",42.3 nM and 42.2 nM,-7.37 log(M)
"Trastuzumab HCDR3 variant ARYGYDYYYYFDV (Fab, V domains shown) VH: EVQLVESGGGLVQPGGSLRLSCAASGFNIKDTYIHWVRQAPGKGLEWVARIYPTNGYTRYADSVKGRFTISADTSKNTAYLQMNSLRAEDTAVYYCARYGYDYYYYFDVWGQGTLVTVSS VL: not shown",50 nM,-7.3 log(M)
"Trastuzumab HCDR3 variant ARYGYGAYYYFDY (Fab, V domains shown) VH: EVQLVESGGGLVQPGGSLRLSCAASGFNIKDTYIHWVRQAPGKGLEWVARIYPTNGYTRYADSVKGRFTISADTSKNTAYLQMNSLRAEDTAVYYCARYGYGAYYYFDYWGQGTLVTVSS VL: not shown",54 nM,-7.27 log(M)
"Trastuzumab HCDR3 variant ARYIFGGPYYFDY (Fab, V domains shown) VH: EVQLVESGGGLVQPGGSLRLSCAASGFNIKDTYIHWVRQAPGKGLEWVARIYPTNGYTRYADSVKGRFTISADTSKNTAYLQMNSLRAEDTAVYYCARYIFGGPYYFDYWGQGTLVTVSS VL: not shown",36 nM,-7.44 log(M)
"Trastuzumab HCDR3 variant ARYLTDADFRLHY (Fab, V domains shown) VH: EVQLVESGGGLVQPGGSLRLSCAASGFNIKDTYIHWVRQAPGKGLEWVARIYPTNGYTRYADSVKGRFTISADTSKNTAYLQMNSLRAEDTAVYYCARYLTDADFRLHYWGQGTLVTVSS VL: not shown",75.1 nM,-7.12 log(M)
"Trastuzumab HCDR3 variant ARYMRPAFYPFLY (Fab, V domains shown) VH: EVQLVESGGGLVQPGGSLRLSCAASGFNIKDTYIHWVRQAPGKGLEWVARIYPTNGYTRYADSVKGRFTISADTSKNTAYLQMNSLRAEDTAVYYCARYMRPAFYPFLYWGQGTLVTVSS VL: not shown",50.9 nM,-7.29 log(M)
"Trastuzumab HCDR3 variant ARYNPFDGFYFDV (Fab, V domains shown) VH: EVQLVESGGGLVQPGGSLRLSCAASGFNIKDTYIHWVRQAPGKGLEWVARIYPTNGYTRYADSVKGRFTISADTSKNTAYLQMNSLRAEDTAVYYCARYNPFDGFYFDVWGQGTLVTVSS VL: not shown",156 nM,-6.81 log(M)
"Trastuzumab HCDR3 variant ARYPGGGIYDFDP (Fab, V domains shown) VH: EVQLVESGGGLVQPGGSLRLSCAASGFNIKDTYIHWVRQAPGKGLEWVARIYPTNGYTRYADSVKGRFTISADTSKNTAYLQMNSLRAEDTAVYYCARYPGGGIYDFDPWGQGTLVTVSS VL: not shown",39.9 nM,-7.4 log(M)
"Trastuzumab HCDR3 variant ARYPNYGFYMFDY (Fab, V domains shown) VH: EVQLVESGGGLVQPGGSLRLSCAASGFNIKDTYIHWVRQAPGKGLEWVARIYPTNGYTRYADSVKGRFTISADTSKNTAYLQMNSLRAEDTAVYYCARYPNYGFYMFDYWGQGTLVTVSS VL: not shown",33.3 nM,-7.48 log(M)
"Trastuzumab HCDR3 variant ARYPSGYYYYFDY (Fab, V domains shown) VH: EVQLVESGGGLVQPGGSLRLSCAASGFNIKDTYIHWVRQAPGKGLEWVARIYPTNGYTRYADSVKGRFTISADTSKNTAYLQMNSLRAEDTAVYYCARYPSGYYYYFDYWGQGTLVTVSS VL: not shown",90.1 nM,-7.05 log(M)
"Trastuzumab HCDR3 variant ARYVTANTYSYDP (Fab, V domains shown) VH: EVQLVESGGGLVQPGGSLRLSCAASGFNIKDTYIHWVRQAPGKGLEWVARIYPTNGYTRYADSVKGRFTISADTSKNTAYLQMNSLRAEDTAVYYCARYVTANTYSYDPWGQGTLVTVSS VL: not shown",83.6 nM and 83.5 nM,-7.08 log(M)
"Trastuzumab HCDR3 variant ARYYSDYSYTFSY (Fab, V domains shown) VH: EVQLVESGGGLVQPGGSLRLSCAASGFNIKDTYIHWVRQAPGKGLEWVARIYPTNGYTRYADSVKGRFTISADTSKNTAYLQMNSLRAEDTAVYYCARYYSDYSYTFSYWGQGTLVTVSS VL: not shown",112 nM,-6.95 log(M)
"Trastuzumab HCDR3 variant ARYYSYGGYYFDY (Fab, V domains shown) VH: EVQLVESGGGLVQPGGSLRLSCAASGFNIKDTYIHWVRQAPGKGLEWVARIYPTNGYTRYADSVKGRFTISADTSKNTAYLQMNSLRAEDTAVYYCARYYSYGGYYFDYWGQGTLVTVSS VL: not shown",106 nM,-6.98 log(M)
"Trastuzumab HCDR3 variant ARYYYDFGYYFDY (Fab, V domains shown) VH: EVQLVESGGGLVQPGGSLRLSCAASGFNIKDTYIHWVRQAPGKGLEWVARIYPTNGYTRYADSVKGRFTISADTSKNTAYLQMNSLRAEDTAVYYCARYYYDFGYYFDYWGQGTLVTVSS VL: not shown",42.8 nM,-7.37 log(M)

Binder,Kd,log(KD (M))
"Trastuzumab HCDR3 variant ARYYYDYGYYFDV (Fab, V domains shown) VH: EVQLVESGGGLVQPGGSLRLSCAASGFNIKDTYIHWVRQAPGKGLEWVARIYPTNGYTRYADSVKGRFTISADTSKNTAYLQMNSLRAEDTAVYYCARYYYDYGYYFDVWGQGTLVTVSS VL: not shown",30 nM,-7.52 log(M)
"Trastuzumab HCDR3 variant ASSGRLDLYDFRL (Fab, V domains shown) VH: EVQLVESGGGLVQPGGSLRLSCAASGFNIKDTYIHWVRQAPGKGLEWVARIYPTNGYTRYADSVKGRFTISADTSKNTAYLQMNSLRAEDTAVYYCASSGRLDLYDFRLWGQGTLVTVSS VL: not shown",171 nM,-6.77 log(M)
"Trastuzumab HCDR3 variant ASVDLGGFYDFRY (Fab, V domains shown) VH: EVQLVESGGGLVQPGGSLRLSCAASGFNIKDTYIHWVRQAPGKGLEWVARIYPTNGYTRYADSVKGRFTISADTSKNTAYLQMNSLRAEDTAVYYCASVDLGGFYDFRYWGQGTLVTVSS VL: not shown",46.1 nM,-7.34 log(M)
"Trastuzumab HCDR3 variant ASYGSGSYFSFPL (Fab, V domains shown) VH: EVQLVESGGGLVQPGGSLRLSCAASGFNIKDTYIHWVRQAPGKGLEWVARIYPTNGYTRYADSVKGRFTISADTSKNTAYLQMNSLRAEDTAVYYCASYGSGSYFSFPLWGQGTLVTVSS VL: not shown",53.9 nM,-7.27 log(M)
"Trastuzumab HCDR3 variant ASYYAPGSYGFDP (Fab, V domains shown) VH: EVQLVESGGGLVQPGGSLRLSCAASGFNIKDTYIHWVRQAPGKGLEWVARIYPTNGYTRYADSVKGRFTISADTSKNTAYLQMNSLRAEDTAVYYCASYYAPGSYGFDPWGQGTLVTVSS VL: not shown",135 nM,-6.87 log(M)
"Trastuzumab HCDR3 variant ATGSGGGGFSYGY (Fab, V domains shown) VH: EVQLVESGGGLVQPGGSLRLSCAASGFNIKDTYIHWVRQAPGKGLEWVARIYPTNGYTRYADSVKGRFTISADTSKNTAYLQMNSLRAEDTAVYYCATGSGGGGFSYGYWGQGTLVTVSS VL: not shown",182 nM,-6.74 log(M)
"Trastuzumab HCDR3 variant ATGYGYLLYSDHD (Fab, V domains shown) VH: EVQLVESGGGLVQPGGSLRLSCAASGFNIKDTYIHWVRQAPGKGLEWVARIYPTNGYTRYADSVKGRFTISADTSKNTAYLQMNSLRAEDTAVYYCATGYGYLLYSDHDWGQGTLVTVSS VL: not shown",171 nM,-6.77 log(M)
"Trastuzumab HCDR3 variant ATSGSVDRYDYVY (Fab, V domains shown) VH: EVQLVESGGGLVQPGGSLRLSCAASGFNIKDTYIHWVRQAPGKGLEWVARIYPTNGYTRYADSVKGRFTISADTSKNTAYLQMNSLRAEDTAVYYCATSGSVDRYDYVYWGQGTLVTVSS VL: not shown",155 nM,-6.81 log(M)
"Trastuzumab HCDR3 variant AVYGPYGGFSYDS (Fab, V domains shown) VH: EVQLVESGGGLVQPGGSLRLSCAASGFNIKDTYIHWVRQAPGKGLEWVARIYPTNGYTRYADSVKGRFTISADTSKNTAYLQMNSLRAEDTAVYYCAVYGPYGGFSYDSWGQGTLVTVSS VL: not shown",70.7 nM,-7.15 log(M)
"Trastuzumab HCDR3 variant SRYGRGVYYYFDY (Fab, V domains shown) VH: EVQLVESGGGLVQPGGSLRLSCAASGFNIKDTYIHWVRQAPGKGLEWVARIYPTNGYTRYADSVKGRFTISADTSKNTAYLQMNSLRAEDTAVYYCSRYGRGVYYYFDYWGQGTLVTVSS VL: not shown",79.7 nM,-7.1 log(M)
"Trastuzumab HCDR3 variant SRYYDYNYYFMDY (Fab, V domains shown) VH: EVQLVESGGGLVQPGGSLRLSCAASGFNIKDTYIHWVRQAPGKGLEWVARIYPTNGYTRYADSVKGRFTISADTSKNTAYLQMNSLRAEDTAVYYCSRYYDYNYYFMDYWGQGTLVTVSS VL: not shown",141 nM,-6.85 log(M)
"Trastuzumab HCDR3 variant SYPDFGYYVYFAY (Fab, V domains shown) VH: EVQLVESGGGLVQPGGSLRLSCAASGFNIKDTYIHWVRQAPGKGLEWVARIYPTNGYTRYADSVKGRFTISADTSKNTAYLQMNSLRAEDTAVYYCSYPDFGYYVYFAYWGQGTLVTVSS VL: not shown",36.8 nM,-7.43 log(M)
"Trastuzumab HCDR3 variant TRWRWGYGYYFDF (Fab, V domains shown) VH: EVQLVESGGGLVQPGGSLRLSCAASGFNIKDTYIHWVRQAPGKGLEWVARIYPTNGYTRYADSVKGRFTISADTSKNTAYLQMNSLRAEDTAVYYCTRWRWGYGYYFDFWGQGTLVTVSS VL: not shown",78.1 nM,-7.11 log(M)
"Trastuzumab HCDR3 variant TRYRGAHGYYFDY (Fab, V domains shown) VH: EVQLVESGGGLVQPGGSLRLSCAASGFNIKDTYIHWVRQAPGKGLEWVARIYPTNGYTRYADSVKGRFTISADTSKNTAYLQMNSLRAEDTAVYYCTRYRGAHGYYFDYWGQGTLVTVSS VL: not shown",35.5 nM,-7.45 log(M)
"Trastuzumab HCDR3 variant TRYYGDGYYDFDY (Fab, V domains shown) VH: EVQLVESGGGLVQPGGSLRLSCAASGFNIKDTYIHWVRQAPGKGLEWVARIYPTNGYTRYADSVKGRFTISADTSKNTAYLQMNSLRAEDTAVYYCTRYYGDGYYDFDYWGQGTLVTVSS VL: not shown",29.2 nM,-7.53 log(M)
